Measured values taken from paper PMC11696170.
Where two headings read alike, the source gives them in different places.

What was measured:
[1] = target: AuraA, dimethylallyl tryptophan synthase (DMATS) family prenyltransferase (Penicillium solitum HDN11-131); experiment: cryo-EM structure
[2] = target: AuraA, dimethylallyl tryptophan synthase (DMATS) family prenyltransferase (Penicillium solitum HDN11-131)

stoichiometry N [1]: 4
stoichiometry N [2]: 4
Substance: AuraA, dimethylallyl tryptophan synthase (DMATS) family prenyltransferase (enzyme)
